We go through 15 molecules from patent US20130109581A1, “POSITIVELY CHARGED SPECIES AS BINDING REAGENTS IN THE SEPARATION OF PROTEIN AGGREGATES FROM MONOMERS” (priority 2009, published 2013).

In assay [1] the target is Abeta 1-42 globulomer, P05067. Description: 42 (globulomer) RLU over 40 (Abeta 1-40 monomer) RLU.
Assay [2] has as its target Abeta 1-42 globulomer, P05067. As to the kind of experiment: MPA bead capture, CSF + 1 ng/mL globulomer, Abeta immunoassay.
Assay [3] deals with ASPD (Abeta42 aggregate), P05067. As to the kind of experiment: MPA, serial dilutions in CSF, LoD = 2x over background.
For assay [4], the target named is Abeta (1-42) aggregates from Alzheimer's Disease Brain Homogenate (human), P05067. The assay is described as above.
For assay [5], the target named is ADDL (Abeta42 aggregate), P05067. The description is as above.
A further assay addresses Abeta42 fibrils, P05067. The description is as above.
For assay [6], the target named is Abeta 1-40 monomer, P05067. As to the kind of experiment: MPA bead capture, Abeta 1-40 read-out of the CSF sample (noise).
For the next assay, the target named is Abeta 1-40 monomer (UniProt P05067). The assay is described as above.
Where [7] appears, read: remark: other sources report otherwise.

Read-outs that look alike come from different tables or passages of the source.

Turning to AKKKKK (modifications not checked), in assay [1], the 42:40 ratio worked out at 2.5. For the same molecule, the average RLU (42) in assay [2] is 442 RLU.

Consider AAAKAA (modifications not checked), for which, in assay [1], the 42:40 ratio turned out to be 0.8. In addition, the average RLU (42) in assay [2] is 114 RLU.

With AAKKAA (modifications not checked), the 42:40 ratio in assay [1] amounted to 1.1. The average RLU (42) in assay [2] worked out at 160 RLU.

Turning to ANFFAHSS (modifications not checked), in assay [1], the 42:40 ratio came to 1.8. In addition, in assay [2], the average RLU (42) amounted to 994 RLU.

Take AKKKKA (modifications not checked): the 42:40 ratio in assay [1] amounted to 2.1. For the same molecule, the average RLU (42) in assay [2] is 322 RLU.

In the case of KKKKKK (modifications not checked), in assay [1] (setting [7]), the 42:40 ratio was determined as 3.3. The average RLU (42) in assay [2] (setting [7]) is 658 RLU.

As for DFKLNFKF (modifications not checked), the 42:40 ratio in assay [1] was 2. Moreover, the average RLU (42) in assay [2] stood at 516 RLU.

For FKFKKK (modifications not checked) [link-FKFKKK], the 42:40 ratio in assay [1] was 4.1. The average RLU (42) in assay [2] amounted to 808 RLU.

B1: Ac-FKFKKK-Link (Ac-FKFKKK-Ahx-Ahx-Cys-NH2) (peptide)
peptide: FKFKKK
HELM: PEPTIDE1{[ac].F.K.F.K.K.K.[O=C(CCCCCN[*:1])[*:2]].[O=C(CCCCCN[*:1])[*:2]].C.[am]}$$$$V2.0
SMILES: CC(=O)N[C@@H](Cc1ccccc1)C(=O)N[C@@H](CCCCN)C(=O)N[C@@H](Cc1ccccc1)C(=O)N[C@@H](CCCCN)C(=O)N[C@@H](CCCCN)C(=O)N[C@@H](CCCCN)C(=O)NCCCCCC(=O)NCCCCCC(=O)N[C@@H](CS)C(N)=O
For B1, the 42:40 ratio in assay [1] came to 5.7. Moreover, the LoD in assay [3] was 300 pg/mL; in assay [4] it was below 10 pg/mL; in assay [5], 300 pg/mL; with Abeta42 fibrils, P05067, 100 pg/mL. Besides, the average RLU (42) in assay [2] is 2000 RLU.

In the case of IRYVTHQYILWP (modifications not checked) […], in assay [1], the 42:40 ratio was found to be 3.2. The average RLU (42) in assay [2] stood at 3240 RLU. For the same molecule, the average RLU (40) in assay [6] was determined as 1010 RLU; with Abeta 1-40 monomer, 348 RLU.

Take AAKKKA (modifications not checked): in assay [1], the 42:40 ratio came to 1.6. Also, the average RLU (42) in assay [2] was 247 RLU.

Take KKKFKF (modifications not checked) [link-KKKFKF]: in assay [1], the 42:40 ratio came to 5.9. In addition, the average RLU (42) in assay [2] worked out at 1650 RLU.

Take KKKFKF (modifications not checked) [KKKFKF-link]: in assay [1], the 42:40 ratio worked out at 3.9. In addition, the average RLU (42) in assay [2] worked out at 748 RLU.

For the molecule FKFNLFSG (modifications not checked), the 42:40 ratio in assay [1] stood at 2.4. The average RLU (42) in assay [2] was 3230 RLU. The average RLU (40) in assay [6] was 1330 RLU.

Turning to FKFSLFSG (modifications not checked), the 42:40 ratio in assay [1] turned out to be 1.5. The average RLU (42) in assay [2] amounted to 3080 RLU. In addition, the average RLU (40) in assay [6] stood at 2010 RLU.
